Source: paper PMC2734569, “Functional mapping of the fission yeast DNA polymerase δ B-subunit Cdc1 by site-directed and random pentapeptide insertion mutagenesis” (BMC Molecular Biology, 2009)

Tests used:
Assay in all cases: two-hybrid; LexA-Cdc1 bait (pBTM116 or pBTM116BN) with Gal4 activation domain-Cdc27 prey (pGAD2F-Cdc27) in S. cerevisiae CTY10-5d; ONPG liquid culture beta-galactosidase assay, mean of triplicates, as percent of wild-type Cdc1
Conditions in all cases: partners not purified
Cdc1-J7 = biological target: T1, Cdc1-J7 (Schizosaccharomyces pombe, UniProt P87324 1-462, Met-GlyValProLeuMet-Glu)
T1 construct: Cdc1, S. pombe, with a pentapeptide inserted after residue 393; source: yeast two-hybrid fusion, in S. cerevisiae CTY10-5d
T1 sequence (looked up): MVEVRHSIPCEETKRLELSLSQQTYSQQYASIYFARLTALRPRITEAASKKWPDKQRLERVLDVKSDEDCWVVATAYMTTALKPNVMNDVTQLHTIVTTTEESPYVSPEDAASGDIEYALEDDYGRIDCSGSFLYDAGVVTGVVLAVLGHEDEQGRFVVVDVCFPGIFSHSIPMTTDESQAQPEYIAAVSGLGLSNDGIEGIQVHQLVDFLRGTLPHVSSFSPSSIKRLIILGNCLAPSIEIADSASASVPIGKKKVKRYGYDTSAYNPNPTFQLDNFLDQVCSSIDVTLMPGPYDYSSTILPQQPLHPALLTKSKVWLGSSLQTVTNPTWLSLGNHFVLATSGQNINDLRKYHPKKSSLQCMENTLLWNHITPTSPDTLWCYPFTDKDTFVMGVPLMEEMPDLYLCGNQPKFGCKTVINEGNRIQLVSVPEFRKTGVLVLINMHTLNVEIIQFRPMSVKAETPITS

Cdc1-E5 = biological target: T2, Cdc1-E5 (Schizosaccharomyces pombe, UniProt P87324 1-462, Val-MetGlyTyrProVal-Met)
T2 construct: Cdc1, S. pombe, with a pentapeptide inserted after residue 86; source: yeast two-hybrid fusion, in S. cerevisiae CTY10-5d
T2 sequence (looked up): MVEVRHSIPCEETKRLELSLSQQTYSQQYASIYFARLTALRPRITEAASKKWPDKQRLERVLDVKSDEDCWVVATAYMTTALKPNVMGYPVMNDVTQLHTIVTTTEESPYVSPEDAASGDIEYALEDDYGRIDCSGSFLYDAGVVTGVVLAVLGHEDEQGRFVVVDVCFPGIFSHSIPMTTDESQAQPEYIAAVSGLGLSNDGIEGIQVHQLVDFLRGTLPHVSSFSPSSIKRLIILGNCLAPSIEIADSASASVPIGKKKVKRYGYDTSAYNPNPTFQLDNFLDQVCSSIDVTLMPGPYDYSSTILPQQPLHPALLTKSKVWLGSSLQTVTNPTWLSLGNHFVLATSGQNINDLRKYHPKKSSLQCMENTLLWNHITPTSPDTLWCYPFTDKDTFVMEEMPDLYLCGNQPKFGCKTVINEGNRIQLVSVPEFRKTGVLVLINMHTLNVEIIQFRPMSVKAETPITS

Cdc1-A8 = biological target: T3, Cdc1-A8 (Schizosaccharomyces pombe, UniProt P87324 1-462, Pro374Ala)
T3 construct: Cdc1, S. pombe, point mutant; source: yeast two-hybrid fusion, in S. cerevisiae CTY10-5d
T3 sequence (looked up): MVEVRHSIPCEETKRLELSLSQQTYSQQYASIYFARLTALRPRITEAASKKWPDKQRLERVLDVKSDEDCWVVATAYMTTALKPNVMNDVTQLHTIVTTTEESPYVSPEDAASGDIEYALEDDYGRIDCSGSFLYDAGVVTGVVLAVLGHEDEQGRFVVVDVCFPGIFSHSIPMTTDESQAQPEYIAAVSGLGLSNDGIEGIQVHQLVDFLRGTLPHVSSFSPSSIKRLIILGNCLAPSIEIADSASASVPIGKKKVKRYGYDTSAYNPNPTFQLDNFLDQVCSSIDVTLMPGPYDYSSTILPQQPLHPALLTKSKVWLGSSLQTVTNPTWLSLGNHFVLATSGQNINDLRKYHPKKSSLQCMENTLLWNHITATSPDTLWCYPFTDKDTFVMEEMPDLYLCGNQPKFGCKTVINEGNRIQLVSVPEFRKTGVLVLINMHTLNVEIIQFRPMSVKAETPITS

B1: Cdc27 (fission yeast DNA polymerase delta C-subunit) (natural protein, Schizosaccharomyces pombe, UniProt P30261 1-372, looked up)
chain: MEEWRNFLDIKVINESSLVTVDNLSLQLDISSEKAQEYLNMFYQGNDFLYPIYLIHGQPIDDEINLEIDEESQPISNFPVLQYILCDKSSLQEKQSRLKSGYKTVIFALSSAPLSDFDELLPAVYEIREKDVLYKKEDADKYGFIFNENSVPRVLKKAPSTHSPQLSVPSKTSTIDKTDTRSTEKTKGKDIFSNARNQKGNSSRKNKKAPLENHKEKEPLLPKEEKLSEQAKRERDDLKNIMQLEDESVSTTSVHDSEDDNLDSNNFQLEIGTEAKSAAPDEPQEIIKSVSGGKRRGKRKVKKYATTKDEEGFLVTKEEEVWESFSEDENISTGTSNVVRNKPTTVNIATKKKNTAQSKPQQKSIMSFFGKK
notes: DNA polymerase delta C-subunit Cdc27, S. pombe; prey plasmid pGAD2F-Cdc27; also called pGAD2F-Cdc27; source: yeast two-hybrid fusion, in S. cerevisiae CTY10-5d
Cdc1-J7
  two-hybrid beta-galactosidase activity, % of wild-type Cdc1: 19%
Cdc1-E5
  two-hybrid beta-galactosidase activity, % of wild-type Cdc1: 88%
Cdc1-A8
  two-hybrid beta-galactosidase activity, % of wild-type Cdc1: 8%
